Experimental data: paper PMC4689063

Biological target: Sam68-6H (UniProt Q07666 1-443)
Test: EMSA
Details: protein: recombinant; tags: 6xHis (pET30c+); chain copies: 2; label: 5' biotin; two UAAA motifs predicted unpaired

Sam68-6H, sequence (Q07666 whole entry): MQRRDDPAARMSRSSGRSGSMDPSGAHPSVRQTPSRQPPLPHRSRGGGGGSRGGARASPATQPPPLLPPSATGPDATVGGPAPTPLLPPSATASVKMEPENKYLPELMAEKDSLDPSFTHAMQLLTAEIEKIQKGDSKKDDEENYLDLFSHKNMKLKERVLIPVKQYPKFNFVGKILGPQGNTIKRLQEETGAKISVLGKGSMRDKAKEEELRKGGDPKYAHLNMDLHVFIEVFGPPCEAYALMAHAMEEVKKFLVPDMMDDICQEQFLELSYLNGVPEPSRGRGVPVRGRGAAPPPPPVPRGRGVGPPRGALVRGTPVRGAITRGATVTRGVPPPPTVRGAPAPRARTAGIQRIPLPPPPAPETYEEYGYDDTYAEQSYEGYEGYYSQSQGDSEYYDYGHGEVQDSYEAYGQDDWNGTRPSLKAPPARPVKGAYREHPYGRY

B1: WT domain 4 probe (ssRNA)
RNA: AAGGGGACCGGGGCUUCUAUAAAAGCGCCCGGUUUAAAAAGCUUCUAUGUCUGAAUAGGUGACCG
With B1 the “apparent K (half saturation)” value was ~3.16 µM.
